Earlier results, collected in US20060024387A1, “Methods and compositions for increasing milk production in animals” (priority 2004, published 2006).

Settings: injection

B1: BST: Hormone injected to increase milk production in lactating cows (protein, UniProt P01246 27-217, looked up)
Somatotropin: AFPAMSLSGLFANAVLRAQHLHQLAADTFKEFERTYIPEGQRYSIQNTQVAFCFSETIPAPTGKNEAQQKSDLELLRISLLLIQSWLGPLQFLSRVFTNSLVFGTSDRVYEKLKDLEEGILALMRELEDGTPRAGQILKQTYDKFDTNMRSDDALLKNYGLLSCFRKDLHKTETYLRVMKCRRFGEASCAF
  effect on milk production: increase milk production
